Data taken from the supplement of paper PMC5998384.

Assays:
HeLa Kyoto [1] = test: solubility in G1/S (NP-40 vs SDS abundance) (log2 ratio); higher = more soluble; conditions: cell cycle stage: G1/S
HeLa Kyoto [2] = test: melting temperature (median over replicates), in situ; higher = more thermally stable
HeLa Kyoto [3] = test: solubility change mitosis vs G1/S (difference of NP-40 vs SDS log2 ratios) (log2 ratio difference); higher = more soluble in mitosis
HeLa Kyoto [4] = test: thermal stability score vs G1/S (z-score of summed log2 fold changes over temperatures); higher = more thermally stable than in G1/S
[5] = cell cycle stage: early G1 (4.5 h after nocodazole release)
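Throughout, for melting temperature (median over replicates), in situ: HeLa Kyoto cells synchronized by double thymidine or nocodazole block, proteins quantified by TMT10plex mass spectrometry, three independent biological replicates.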
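Throughout, for solubility change mitosis vs G1/S (difference of NP-40 vs SDS log2 ratios): synchronized HeLa Kyoto cells (double thymidine block for G1/S, nocodazole release for mitosis), protein amounts in NP-40 versus SDS lysates quantified by mass spectrometry, three biological replicates.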
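Throughout, for solubility in G1/S (NP-40 vs SDS abundance): HeLa Kyoto cells arrested at G1/S by double thymidine block, proteins quantified by TMT10plex mass spectrometry in mild NP-40 versus SDS extracts, three biological replicates.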
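Throughout, for thermal stability score vs G1/S (z-score of summed log2 fold changes over temperatures): synchronized HeLa Kyoto cells, proteins quantified by TMT10plex mass spectrometry, three biological replicates, mitosis taken 0.5 h after nocodazole release, G1/S directly after double thymidine block.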

Row | Substance | solubility in G1/S (log2) (HeLa Kyoto [1]) | melting temperature (HeLa Kyoto [2]; cell cycle stage: G1/S) | melting temperature (HeLa Kyoto [2]; cell cycle stage: mitosis) | solubility change mitosis (log2) (HeLa Kyoto [3]) | thermal stability score (HeLa Kyoto [4]; [5]) | thermal stability score (HeLa Kyoto [4]; cell cycle stage: mitosis)
1 | MLDFLAENNLCGQAILRIVSCGNAIIAELLRLSEFIPAVFRLKDRADQQKYGDIIFDFSYFKGPELWESKLDAKPELQDLDEEFRENNIEIVTRFYLAFQSVHKYIVDLNRYLDDLNEGVYIQQTLETVLLNEDGKQLLCEALYLYGVMLLVIDQKIEGEVRERMLVSYYRYSAARSSADSNMDDICKLLRSTGYSSQPGAKRPSNYPESYFQRVPINESFISMVIGRLRSDDIYNQVSAYPLPEHRSTALANQAAMLYVILYFEPSILHTHQAKMREIVDKYFPDNWVISIYMGITVNLVDAWEPYKAAKTALNNTLDLSNVREQASRYATVSERVHAQVQQFLKEGYLREEMVLDNIPKLLNCLRDCNVAIRWLMLHTADSACDPNNKRLRQIKDQILTDSRYNPRILFQLLLDTAQFEFILKEMFKQMLSEKQTKWEHYKKEGSERMTELADVFSGVKPLTRVEKNENLQAWFREISKQILSLNYDDSTAAGRKTVQLIQALEEVQEFHQLESNLQVCQFLADTRKFLHQMIRTINIKEEVLITMQIVGDLSFAWQLIDSFTSIMQESIRVNPSMVTKLRATFLKLASALDLPLLRINQANSPDLLSVSQYYSGELVSYVRKVLQIIPESMFTSLLKIIKLQTHDIIEVPTRLDKDKLRDYAQLGPRYEVAKLTHAISIFTEGILMMKTTLVGIIKVDPKQLLEDGIRKELVKRVAFALHRGLIFNPRAKPSELMPKLKELGATMDGFHRSFEYIQDYVNIYGLKIWQEEVSRIINYNVEQECNNFLRTKIQDWQSMYQSTHIPIPKFTPVDESVTFIGRLCREILRITDPKMTCHIDQLNTWYDMKTHQEVTSSRLFSEIQTTLGTFGLNGLDRLLCFMIVKELQNFLSMFQKIILRDRTVQDTLKTLMNAVSPLKSIVANSNKIYFSAIAKTQKIWTAYLEAIMKVGQMQILRQQIANELNYSCRFDSKHLAAALENLNKALLADIEAHYQDPSLPYPKEDNTLLYEITAYLEAAGIHNPLNKIYITTKRLPYFPIVNFLFLIAQLPKLQYNKNLGMVCRKPTDPVDWPPLVLGLLTLLKQFHSRYTEQFLALIGQFICSTVEQCTSQKIPEIPADVVGALLFLEDYVRYTKLPRRVAEAHVPNFIFDEFRTVL [KIAA0196] | -0.217 | 50.7 °C | 50 °C | -0.117 | 0.232 | -0.00652
2 | MPEDQAGAAMEEASPYSLLDICLNFLTTHLEKFCSARQDGTLCLQEPGVFPQEVADRLLRTMAFHGLLNDGTVGIFRGNQMRLKRACIRKAKISAVAFRKAFCHHKLVELDATGVNADITITDIISGLGSNKWIQQNLQCLVLNSLTLSLEDPYERCFSRLSGLRALSITNVLFYNEDLAEVASLPRLESLDISNTSITDITALLACKDRLKSLTMHHLKCLKMTTTQILDVVRELKHLNHLDISDDKQFTSDIALRLLEQKDILPNLVSLDVSGRKHVTDKAVEAFIQQRPSMQFVGLLATDAGYSEFLTGEGHLKVSGEANETQIAEALKRYSERAFFVREALFHLFSLTHVMEKTKPEILKLVVTGMRNHPMNLPVQLAASACVFNLTKQDLAAGMPVRLLADVTHLLLKAMEHFPNHQQLQKNCLLSLCSDRILQDVPFNRFEAAKLVMQWLCNHEDQNMQRMAVAIISILAAKLSTEQTAQLGTELFIVRQLLQIVKQKTNQNSVDTTLKFTLSALWNLTDESPTTCRHFIENQGLELFMRVLESFPTESSIQQKVLGLLNNIAEVQELHSELMWKDFIDHISSLLHSVEVEVSYFAAGIIAHLISRGEQAWTLSRSQRNSLLDDLHSAILKWPTPECEMVAYRSFNPFFPLLGCFTTPGVQLWAVWAMQHVCSKNPSRYCSMLIEEGGLQHLYNIKDHEHTDPHVQQIAVAILDSLEKHIVRHGRPPPCKKQPQARLN [ZYG11B] | -0.136 | 52.4 °C | 52.3 °C | -0.182 | 2.24 | 0.857
3 | MEFPGGNDNYLTITGPSHPFLSGAETFHTPSLGDEEFEIPPISLDSDPSLAVSDVVGHFDDLADPSSSQDGSFSAQYGVQTLDMPVGMTHGLMEQGGGLLSGGLTMDLDHSIGTQYSANPPVTIDVPMTDMTSGLMGHSQLTTIDQSELSSQLGLSLGGGTILPPAQSPEDRLSTTPSPTSSLHEDGVEDFRRQLPSQKTVVVEAGKKQKAPKKRKKKDPNEPQKPVSAYALFFRDTQAAIKGQNPNATFGEVSKIVASMWDSLGEEQKQVYKRKTEAAKKEYLKALAAYKDNQECQATVETVELDPAPPSQTPSPPPMATVDPASPAPASIEPPALSPSIVVNSTLSSYVANQASSGAGGQPNITKLIITKQMLPSSITMSQGGMVTVIPATVVTSRGLQLGQTSTATIQPSQQAQIVTRSVLQAAAAAAAAASMQLPPPRLQPPPLQQMPQPPTQQQVTILQQPPPLQAMQQPPPQKVRINLQQQPPPLQIKSVPLPTLKMQTTLVPPTVESSPERPMNNSPEAHTVEAPSPETICEMITDVVPEVESPSQMDVELVSGSPVALSPQPRCVRSGCENPPIVSKDWDNEYCSNECVVKHCRDVFLAWVASRNSNTVVFVK [TOX4] | -0.562 | 50.6 °C | 53 °C | 0.0879 | 0.423 | 0.887
4 | MCGIFAYMNYRVPRTRKEIFETLIKGLQRLEYRGYDSAGVAIDGNNHEVKERHIQLVKKRGKVKALDEELYKQDSMDLKVEFETHFGIAHTRWATHGVPSAVNSHPQRSDKGNEFVVIHNGIITNYKDLRKFLESKGYEFESETDTETIAKLIKYVFDNRETEDITFSTLVERVIQQLEGAFALVFKSVHYPGEAVATRRGSPLLIGVRSKYKLSTEQIPILYRTCTLENVKNICKTRMKRLDSSACLHAVGDKAVEFFFASDASAIIEHTNRVIFLEDDDIAAVADGKLSIHRVKRSASDDPSRAIQTLQMELQQIMKGNFSAFMQKEIFEQPESVFNTMRGRVNFETNTVLLGGLKDHLKEIRRCRRLIVIGCGTSYHAAVATRQVLEELTELPVMVELASDFLDRNTPVFRDDVCFFISQSGETADTLLALRYCKDRGALTVGVTNTVGSSISRETDCGVHINAGPEIGVASTKAYTSQFISLVMFGLMMSEDRISLQNRRQEIIRGLRSLPELIKEVLSLEEKIHDLALELYTQRSLLVMGRGYNYATCLEGALKIKEITYMHSEGILAGELKHGPLALIDKQMPVIMVIMKDPCFAKCQNALQQVTARQGRPIILCSKDDTESSKFAYKTIELPHTVDCLQGILSVIPLQLLSFHLAVLRGYDVDFPRNLAKSVTVE [GFPT2] | -0.201 | 54.3 °C | 53.9 °C | -0.124 | -1.27 | 0.586
5 | MEDFARGAASPGPSRPGLVPVSIIGAEDEDFENELETNSEEQNSQFQSLEQVKRRPAHLMALLQHVALQFEPGPLLCCLHADMLGSLGPKEAKKAFLDFYHSFLEKTAVLRVPVPPNVAFELDRTRADLISEDVQRRFVQEVVQSQQVAVGRQLEDFRSKRLMGMTPWEQELAQLEAWVGRDRASYEARERHVAERLLMHLEEMQHTISTDEEKSAAVVNAIGLYMRHLGVRTKSGDKKSGRNFFRKKVMGNRRSDEPAKTKKGLSSILDAARWNRGEPQVPDFRHLKAEVDAEKPGATDRKGGVGMPSRDRNIGAPGQDTPGVSLHPLSLDSPDREPGADAPLELGDSSPQGPMSLESLAPPESTDEGAETESPEPGDEGEPGRSGLELEPEEPPGWRELVPPDTLHSLPKSQVKRQEVISELLVTEAAHVRMLRVLHDLFFQPMAECLFFPLEELQNIFPSLDELIEVHSLFLDRLMKRRQESGYLIEEIGDVLLARFDGAEGSWFQKISSRFCSRQSFALEQLKAKQRKDPRFCAFVQEAESRPRCRRLQLKDMIPTEMQRLTKYPLLLQSIGQNTEEPTEREKVELAAECCREILHHVNQAVRDMEDLLRLKDYQRRLDLSHLRQSSDPMLSEFKNLDITKKKLVHEGPLTWRVTKDKAVEVHVLLLDDLLLLLQRQDERLLLKSHSRTLTPTPDGKTMLRPVLRLTSAMTREVATDHKAFYVLFTWDQEAQIYELVAQTVSERKNWCALITETAGSLKVPAPASRPKPRPSPSSTREPLLSSSENGNGGRETSPADARTERILSDLLPFCRPGPEGQLAATALRKVLSLKQLLFPAEEDNGAGPPRDGDGVPGGGPLSPARTQEIQENLLSLEETMKQLEELEEEFCRLRPLLSQLGGNSVPQPGCT [ARHGEF1] | 0.0626 | 49.2 °C | 49.1 °C | -0.134 | 1.08 | 1.58
6 | DYNC1H1 | -0.318 | 51.8 °C | 51.2 °C | -0.141 | 0.0561 | 2.96
7 | MIA3 | 0.245 | 51.4 °C | 52.2 °C | -0.082 | 3.98 | 7.12
8 | MSGLVLGQRDEPAGHRLSQEEILGSTRLVSQGLEALRSEHQAVLQSLSQTIECLQQGGHEEGLVHEKARQLRRSMENIELGLSEAQVMLALASHLSTVESEKQKLRAQVRRLCQENQWLRDELAGTQQRLQRSEQAVAQLEEEKKHLEFLGQLRQYDEDGHTSEEKEGDATKDSLDDLFPNEEEEDPSNGLSRGQGATAAQQGGYEIPARLRTLHNLVIQYAAQGRYEVAVPLCKQALEDLERTSGRGHPDVATMLNILALVYRDQNKYKEAAHLLNDALSIRESTLGPDHPAVAATLNNLAVLYGKRGKYKEAEPLCQRALEIREKVLGTNHPDVAKQLNNLALLCQNQGKYEAVERYYQRALAIYEGQLGPDNPNVARTKNNLASCYLKQGKYAEAETLYKEILTRAHVQEFGSVDDDHKPIWMHAEEREEMSKSRHHEGGTPYAEYGGWYKACKVSSPTVNTTLRNLGALYRRQGKLEAAETLEECALRSRRQGTDPISQTKVAELLGESDGRRTSQEGPGDSVKFEGGEDASVAVEWSGDGSGTLQRSGSLGKIRDVLRRSSELLVRKLQGTEPRPSSSNMKRAASLNYLNQPSAAPLQVSRGLSASTMDLSSSS [KLC4] | 0.299 | 49.8 °C | 51.3 °C | -0.12 | 0.719 | 1.19
9 | NOTCH2 | -0.0358 | 50.1 °C | 51 °C | -0.171 | -1.09 | -2.98
10 | LRP6 | 0.027 | 52.7 °C | 53.1 °C | 0.112 | -4.02 | -2.07
11 | MAAWGRRRLGPGSSGGSARERVSLSATDCYIVHEIYNGENAQDQFEYELEQALEAQYKYIVIEPTRIGDETARWITVGNCLHKTAVLAGTACLFTPLALPLDYSHYISLPAGVLSLACCTLYGISWQFDPCCKYQVEYDAYKLSRLPLHTLTSSTPVVLVRKDDLHRKRLHNTIALAALVYCVKKIYELYAV [TMEM11] | -0.0105 | 52.2 °C | 51.4 °C | -0.0939 | -0.391 | -1.34
12 | MVLLHVLFEHAVGYALLALKEVEEISLLQPQVEESVLNLGKFHSIVRLVAFCPFASSQVALENANAVSEGVVHEDLRLLLETHLPSKKKKVLLGVGDPKIGAAIQEELGYNCQTGGVIAEILRGVRLHFHNLVKGLTDLSACKAQLGLGHSYSRAKVKFNVNRVDNMIIQSISLLDQLDKDINTFSMRVREWYGYHFPELVKIINDNATYCRLAQFIGNRRELNEDKLEKLEELTMDGAKAKAILDASRSSMGMDISAIDLINIESFSSRVVSLSEYRQSLHTYLRSKMSQVAPSLSALIGEAVGARLIAHAGSLTNLAKYPASTVQILGAEKALFRALKTRGNTPKYGLIFHSTFIGRAAAKNKGRISRYLANKCSIASRIDCFSEVPTSVFGEKLREQVEERLSFYETGEIPRKNLDVMKEAMVQAEEAAAEITRKLEKQEKKRLKKEKKRLAALALASSENSSSTPEECEEMSEKPKKKKKQKPQEVPQENGMEDPSISFSKPKKKKSFSKEELMSSDLEETAGSTSIPKRKKSTPKEETVNDPEEAGHRSGSKKKRKFSKEEPVSSGPEEAVGKSSSKKKKKFHKASQED [NOP56] | -2.05 | 54.6 °C | 52 °C | 1.28 | -2.17 | -6.89
